The target in series [1] is Geobacillus stearothermophilus IstA (IS5376 transposase, IS21 family) (Geobacillus stearothermophilus). The experiment in a line: cryo-EM structure; IstA mixed 1:1.5 with the pre-cleaved right TIR DNA (5-nt 5' overhang), complex isolated by gel filtration; 50 mM HEPES pH 7.5, 150 mM NaCl, 5 mM MgCl2, 1 mM DTT, 0.005% Tween-20; 3.4 Å, C2 symmetry.
The target of series [2] is T1, IstA-MBP (Geobacillus stearothermophilus, UniProt Q45618 1-400).
T1 sequence: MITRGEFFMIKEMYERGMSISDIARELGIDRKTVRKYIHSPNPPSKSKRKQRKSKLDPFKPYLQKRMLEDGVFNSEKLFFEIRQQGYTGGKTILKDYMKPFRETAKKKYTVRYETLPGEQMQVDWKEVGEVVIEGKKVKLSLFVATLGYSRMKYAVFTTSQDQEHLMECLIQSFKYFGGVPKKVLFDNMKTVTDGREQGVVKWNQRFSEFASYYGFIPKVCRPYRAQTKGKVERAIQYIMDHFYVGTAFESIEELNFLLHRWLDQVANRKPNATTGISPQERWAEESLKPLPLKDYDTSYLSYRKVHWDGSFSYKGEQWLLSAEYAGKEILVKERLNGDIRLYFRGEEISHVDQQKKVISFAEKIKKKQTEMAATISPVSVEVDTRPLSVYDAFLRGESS
In words: fluorescence anisotropy; apparent Kd; Hill coefficient 2.2; 5 mM Mg2+; Fluorescence anisotropy: 50 mM HEPES pH 7.5, 150 mM NaCl, 5 mM MgCl2, 10% glycerol, 1 mM beta-mercaptoethanol, 0.1 mg/ml BSA, 5 nM DNA, 37 °C, 5 min. The following applies: protein: recombinant; tags: C-terminal TEV-cleavable MBP-His6; label: 5'-FAM on strand 1; blunt.

Series [3] addresses T1, IstA-MBP. The experiment in a line: fluorescence anisotropy; apparent Kd; Hill coefficient 3.6; 5 mM Mg2+; Fluorescence anisotropy: 50 mM HEPES pH 7.5, 150 mM NaCl, 5 mM MgCl2, 10% glycerol, 1 mM beta-mercaptoethanol, 0.1 mg/ml BSA, 5 nM DNA, 37 °C, 5 min. The note with it: protein: recombinant; tags: C-terminal TEV-cleavable MBP-His6; label: 5'-FAM on strand 1; blunt.
A further series has as its target T2, IstA (Geobacillus stearothermophilus, UniProt Q45618 1-400).
T2 sequence: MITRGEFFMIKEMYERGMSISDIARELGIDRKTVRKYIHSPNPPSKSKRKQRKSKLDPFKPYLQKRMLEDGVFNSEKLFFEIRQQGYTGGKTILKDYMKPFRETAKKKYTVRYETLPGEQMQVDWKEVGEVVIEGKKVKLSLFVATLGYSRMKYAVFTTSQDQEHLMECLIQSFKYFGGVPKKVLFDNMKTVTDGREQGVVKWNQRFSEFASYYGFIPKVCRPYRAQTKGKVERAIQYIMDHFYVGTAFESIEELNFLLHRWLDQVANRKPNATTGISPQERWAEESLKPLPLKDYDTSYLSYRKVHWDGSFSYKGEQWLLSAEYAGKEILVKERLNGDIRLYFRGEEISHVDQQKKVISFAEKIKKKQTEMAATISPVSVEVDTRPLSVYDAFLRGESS
In words: cryo-EM structure (3.4 A); 5 mM Mg2+; IstA tetramer with two DNA ends; Fluorescence anisotropy: 50 mM HEPES pH 7.5, 150 mM NaCl, 5 mM MgCl2, 10% glycerol, 1 mM beta-mercaptoethanol, 0.1 mg/ml BSA, 5 nM DNA, 37 °C, 5 min. The note with it: protein: recombinant; tags: MBP-His6 tag removed by TEV; 5' overhang 5 nt on strand 2; two duplex copies per tetramer.

For series [4], the target named is T1, IstA-MBP. The experiment in a line: fluorescence anisotropy; apparent Kd; Hill coefficient 1.5; 5 mM Mg2+; Fluorescence anisotropy: 50 mM HEPES pH 7.5, 150 mM NaCl, 5 mM MgCl2, 10% glycerol, 1 mM beta-mercaptoethanol, 0.1 mg/ml BSA, 5 nM DNA, 37 °C, 5 min. The following applies: protein: recombinant; tags: C-terminal TEV-cleavable MBP-His6; label: 5'-FAM on strand 1; blunt.

The target of series [5] is T1, IstA-MBP. The experiment in a line: fluorescence anisotropy; apparent Kd; Hill coefficient 1.2; 5 mM Mg2+; Fluorescence anisotropy: 50 mM HEPES pH 7.5, 150 mM NaCl, 5 mM MgCl2, 10% glycerol, 1 mM beta-mercaptoethanol, 0.1 mg/ml BSA, 5 nM DNA, 37 °C, 5 min. The following applies: protein: recombinant; tags: C-terminal TEV-cleavable MBP-His6; label: 5'-FAM on strand 1; blunt.

We go through six molecules from paper PMC10122671, “IS21 family transposase cleaved donor complex traps two right-handed superhelical crossings”.

On to “Geobacillus stearothermophilus IstA (IS5376 transposase, IS21 family) (enzyme)”, for which, in series [1], the stoichiometry N came to 4.

B1: Rd27 (dsDNA)
DNA 1: TGCTAACACGTCGGATCATCGCAAGCA
DNA 2: TGCTTGCGATGATCCGACGTGTTAGCA
Regarding B1, the Kd in the series with IstA-MBP [2] came out at 121 nM.

B2: R1-R2 (pre-cleaved full right TIR) (dsDNA)
DNA 1: CCTTCTGGGGAATTTTAAACCGGCGATTTTGGGGAAAAAATAATCGGCCTTGACA
DNA 2: TGTCAAGGCCGATTATTTTTTCCCCAAAATCGCCGGTTTAAAATTCCCCAGAAGG
As to B2, the Kd with IstA-MBP [3] is 125 nM.

B3: Pre-cleaved right TIR with 5 nt 5' overhang (dsDNA)
DNA 1: CCTTCTGGGGAATTTTAAACCGGCGATTTTGGGGAAAAAATAATCGGCCTTGACA
DNA 2: ATTCATGTCAAGGCCGATTATTTTTTCCCCAAAATCGCCGGTTTAAAATTCCCCAGAAGG
Consider B3, for which the binding result with IstA is “binds”.

B4: Rd60 (dsDNA)
DNA 1: TGCTTGCGATGATCCGACGTGTTAGCCACGCTGACTAGTTATGCCATGCCTCCCTTCAGG
DNA 2: CCTGAAGGGAGGCATGGCATAACTAGTCAGCGTGGCTAACACGTCGGATCATCGCAAGCA
For the molecule B4, in the series with IstA-MBP [4], the Kd is 191 nM.

B5: R1 (27 bp right TIR) (dsDNA)
DNA 1: TTGGGGAAAAAATAATCGGCCTTGACA
DNA 2: TGTCAAGGCCGATTATTTTTTCCCCAA
As for B5, the Kd with IstA-MBP [5] was determined as 176 nM.
